# Laboratory results as given in the supplement of paper PMC10724198.
# ± gives the standard deviation of the averaged measurements.
# Tested on: Saccharomyces cerevisiae
# Assay: protein stability index of tFT-peptide fusion (C-terminal peptide) (PSI (0-1 scale)); higher = more stable (slower turnover)
# Details: genetic background: wild type; temperature: 30 C
# 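Further: PSI is a weighted mean of sequencing reads over stability bins, variants kept only with over 10 reads, mCherry proximal and sfGFP distal, peptide attached via GGGS linker.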
row,Sequence,protein stability index
1,VFQRFLLFTISP,0.61 ± 0.014
2,ALMHVTLAVGLL,0.579 ± 0.0027
3,LSPPLSLPPASP,0.731 ± 0.032
4,LLPSSPRTFPLL,0.6731 ± 0.0008
5,PPHTALLPPAPA,0.583 ± 0.019
6,SNKKRTRNEGKD,0.6109 ± 0.0047
7,LTVIRSRDVIGP,0.641 ± 0.055
8,SALRGTDMREEV,0.632 ± 0.023
9,WLPRPHPPLRPA,0.724 ± 0.08
10,WKKSEKTEHEQI,0.653 ± 0.12
11,PPPPLSPPPPRP,0.693 ± 0.05
12,SPSLPPLSPPNP,0.699 ± 0.039
13,SGKFVGCSFWMG,0.62 ± 0.016
14,EALVVLGVGFFG,0.651 ± 0.021
15,VGVSFSFGSIFL,0.687 ± 0.022
16,SVCVLGPLDGSC,0.701 ± 0.022
17,EALTLLGAFYLP,0.694 ± 0.025
18,RRSLDQSIQAKC,0.643 ± 0.055
19,TDFPRDFPPVDL,0.7526 ± 0.0029
20,LALVGGACVGRV,0.65 ± 0.044
21,GAWFSWLGEVVG,0.701 ± 0.075
22,GGAEEGRANCWN,0.722 ± 0.1
23,SVGLLLSPFPPL,0.6882 ± 0.0063
24,ARGSTGLKLRWG,0.706 ± 0.0096
25,DVLGLSSRPFRV,0.665 ± 0.015

row,Sequence,protein stability index
1,SWVFSVDNGLVV,0.6133 ± 0.0012
2,APPPPPSPRRPL,0.708 ± 0.013
3,PMLSLFRYNVVR,0.697 ± 0.021
4,PAPPFPIRPPAA,0.653 ± 0.015
5,HKDVRGRSLSRM,0.7183 ± 0.0024
6,WVGFRTFGVWGV,0.707 ± 0.063
7,LALSVRFFSVLF,0.587 ± 0.036
8,EGDGAVGKTRGD,0.691 ± 0.042
9,SPPTPRIPPPLP,0.663 ± 0.035
10,SLFLLFRSRACS,0.539 ± 0.011
11,HCYKRGSCTSLI,0.631 ± 0.087
12,YIPPGNTTVPSC,0.694 ± 0.038
13,LPVPPPHPPCPL,0.6497 ± 0.0036
14,CSPCSFCDLVSH,0.691 ± 0.03
15,ARPGAWAPTEVD,0.737 ± 0.0099
16,RGVGWGGLEGIG,0.5235 ± 0.0014
17,PLVPLAFWSPLV,0.686 ± 0.035
18,GVCGVSKGRRHR,0.701 ± 0.018
19,KMGKIQKVKGIK,0.731 ± 0.012
20,NQVNEELDKKGH,0.719 ± 0.14
21,LIRYVPFSYVLV,0.599 ± 0.007
22,DLRSQGWVALFH,0.663 ± 0.04
23,PSLFFLPPPPSP,0.695 ± 0.0096
24,PMHVLTKLCDGV,0.689 ± 0.083
25,WWWGGVRGGMGG,0.749 ± 0.026

row,Sequence,protein stability index
1,MMEQLCCRRRLF,0.496 ± 0.041
2,QGNEQFRYKILQ,0.598 ± 0.098
3,RQKAQESNTQPP,0.73 ± 0.044
4,YFWTHLISIPDV,0.676 ± 0.062
5,PSPRPPPPPPPP,0.66 ± 0.025
6,RVRGGGPRESGQ,0.728 ± 0.024
7,FLGGSRVGRGDG,0.6943 ± 0.0053
8,PPFPPPSPPHAL,0.751 ± 0.1
9,KKTITNNCPSYD,0.6638 ± 0.0066
10,HFLPFSLLLFPP,0.755 ± 0.14
11,AGASCGGRPDTA,0.607 ± 0.02
12,RACSLWVSVVQP,0.67873 ± 2.3e-05
13,PVPKFKEPKIWW,0.698 ± 0.021
14,FCSRVGFVFLRL,0.489 ± 0.024
15,LALFPDPSSIIL,0.7765 ± 0.0075
16,IGNFTTEVDGWG,0.662 ± 0.036
17,QDAPPSTPPRPL,0.786 ± 0.15
18,GKYIPHGNPSMA,0.685 ± 0.051
19,IKKEKKQKKKKG,0.665 ± 0.098
20,KEENKKKKKKRI,0.755 ± 0.081
21,GFNRRVWRGLGV,0.721 ± 0.053
22,GTRQLGRTEPGE,0.695 ± 0.038
23,PYNLSSRPSTLL,0.625 ± 0.053
